This note sets out measurements from paper PMC7265321 (The Journal of Cell Biology, 2020).

For experiment [1], the target named is MEL-26 (UniProt Q94420). Description: Far-Western after SDS-PAGE. Particulars: reference: unmodified wild type; sites S92.
Experiment [2] deals with MEL-26 (UniProt Q94420). Description: native dot blot of Katanin. As to conditions: reference: unmodified wild type; sites S92.
A further experiment addresses T1, MEI-1 S92-aaPho-6xHis (C. elegans, UniProt P34808 1-472, phosphoserine at 92 (100% by mass spectrometry)).
T1 sequence (looked up): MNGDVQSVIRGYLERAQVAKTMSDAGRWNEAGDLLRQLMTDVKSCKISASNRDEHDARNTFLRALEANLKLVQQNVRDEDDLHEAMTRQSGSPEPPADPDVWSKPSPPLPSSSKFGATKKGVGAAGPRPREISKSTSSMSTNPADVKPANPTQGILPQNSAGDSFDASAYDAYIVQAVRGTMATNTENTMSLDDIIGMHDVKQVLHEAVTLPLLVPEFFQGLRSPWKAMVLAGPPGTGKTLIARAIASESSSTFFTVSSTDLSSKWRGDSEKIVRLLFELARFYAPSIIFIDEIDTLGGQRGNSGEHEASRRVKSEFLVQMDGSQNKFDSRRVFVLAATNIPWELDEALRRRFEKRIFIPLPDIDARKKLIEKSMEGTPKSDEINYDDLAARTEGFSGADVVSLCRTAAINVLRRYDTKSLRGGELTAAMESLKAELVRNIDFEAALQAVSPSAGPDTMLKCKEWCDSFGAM
Description: far-Western.

For another experiment, the target named is T2, 6xHis-MEI-1 S92D (C. elegans, UniProt P34808 1-472, S92D).
T2 sequence (looked up): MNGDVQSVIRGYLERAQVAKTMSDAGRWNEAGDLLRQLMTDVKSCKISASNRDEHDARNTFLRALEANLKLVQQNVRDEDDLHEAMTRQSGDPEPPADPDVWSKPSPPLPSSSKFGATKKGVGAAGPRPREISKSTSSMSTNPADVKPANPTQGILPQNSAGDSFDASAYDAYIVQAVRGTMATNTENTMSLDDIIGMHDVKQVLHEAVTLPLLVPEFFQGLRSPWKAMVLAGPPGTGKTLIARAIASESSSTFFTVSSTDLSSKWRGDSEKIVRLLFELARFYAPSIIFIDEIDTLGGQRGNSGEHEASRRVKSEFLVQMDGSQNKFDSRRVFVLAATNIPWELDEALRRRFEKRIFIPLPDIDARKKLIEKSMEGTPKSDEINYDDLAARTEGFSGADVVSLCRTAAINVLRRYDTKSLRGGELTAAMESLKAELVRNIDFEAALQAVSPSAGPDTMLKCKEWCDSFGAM
The experiment can be described thus: far-Western.

Experiment [3] has as its target T3, Katanin with MEI-1 S92D (6xHis-MEI-1 S92D / Strep-MEI-2) (C. elegans, UniProt P34808 1-472; O44740 1-280, S92D).
T3 sequence (looked up) 1: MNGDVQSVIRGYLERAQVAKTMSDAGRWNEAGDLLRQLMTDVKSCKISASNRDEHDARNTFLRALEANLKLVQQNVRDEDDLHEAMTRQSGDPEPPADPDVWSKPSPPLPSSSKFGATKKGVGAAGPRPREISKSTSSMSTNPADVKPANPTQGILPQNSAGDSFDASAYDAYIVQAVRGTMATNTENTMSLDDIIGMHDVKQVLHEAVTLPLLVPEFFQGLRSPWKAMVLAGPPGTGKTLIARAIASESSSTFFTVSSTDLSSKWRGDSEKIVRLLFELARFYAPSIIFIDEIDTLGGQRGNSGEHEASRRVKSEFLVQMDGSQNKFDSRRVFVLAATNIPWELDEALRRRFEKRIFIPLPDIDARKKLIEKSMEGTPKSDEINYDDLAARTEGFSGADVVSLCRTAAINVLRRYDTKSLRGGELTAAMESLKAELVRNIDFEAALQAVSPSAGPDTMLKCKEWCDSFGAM
T3 sequence (looked up) 2: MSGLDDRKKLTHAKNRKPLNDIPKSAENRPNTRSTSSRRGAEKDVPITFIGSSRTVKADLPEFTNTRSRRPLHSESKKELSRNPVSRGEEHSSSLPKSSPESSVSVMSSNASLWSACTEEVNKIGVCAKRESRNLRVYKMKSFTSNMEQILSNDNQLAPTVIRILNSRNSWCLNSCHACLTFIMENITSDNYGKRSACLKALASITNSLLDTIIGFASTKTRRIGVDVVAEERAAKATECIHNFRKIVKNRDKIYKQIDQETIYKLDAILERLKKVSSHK
Description: overlay or dot blot.

Regarding “MEI-1 (Katanin p60 catalytic subunit) (from UniProt P34808) S92-aaPho (phosphoserine by genetic code expansion)”, the “binding against the reference” value with MEL-26 [1] and with MEL-26 [2] was “stronger” throughout.

B1: GST-MEL-26 (natural protein, C. elegans, UniProt Q94420 1-395, looked up)
chain: MEPRIDGGVFIGGIGNSGNEMCSNGVPALGVSSQTEIKVEKVQHTWTVKNFSHCYQEYLENFVYLQRGDEQLTWSIKIYPKGNGENNKDFVFLCLNRVINNNVKAGKIGFKSQFKLRTAENKDIEMRIHPNPSHSDYVSYIKRDVLFPQIMPRDMIIVNVEIDVAVETITTTNEPIQFEPTNSEQQLIEDYQRLFSQELLCDFAINVNGKIIRAHKAVLAARSPVFNAMLTHQDTDEAKSSMMYINDMDYDVIYEMVYYIYCGRCNKDITDMATALLIAADKYRLEELKSHCEKYLVENINIENACSLLIIGDLYSAPKLRKRAVTYILARPKNVTGTPGWEDILKGHPNLITDIFSQIDRQSSTGATSSVSNLPGVPMDIPGITGNIVPPPSGL
Consider B1, for which the binding result (with MEI-1 S92-aaPho-6xHis; in the experiment with 6xHis-MEI-1 S92D; in experiment [3]) was “binds” each time.
